Reference: US20220332804A1 (CSL INNOVATION, published 2022)

What was measured:
Experiment in all cases: SPR, antibody captured, C2 as analyte;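 also: biacore at 37 °C, anti-C2 mAbs held by immobilised goat anti-human IgG, C2 alanine or serine mutants injected, double-referenced sensorgrams fitted to a 1:1 kinetic or steady-state model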
human C2 D419A = target: T1, human C2 D419A (human, UniProt P06681 21-752)
T1 sequence: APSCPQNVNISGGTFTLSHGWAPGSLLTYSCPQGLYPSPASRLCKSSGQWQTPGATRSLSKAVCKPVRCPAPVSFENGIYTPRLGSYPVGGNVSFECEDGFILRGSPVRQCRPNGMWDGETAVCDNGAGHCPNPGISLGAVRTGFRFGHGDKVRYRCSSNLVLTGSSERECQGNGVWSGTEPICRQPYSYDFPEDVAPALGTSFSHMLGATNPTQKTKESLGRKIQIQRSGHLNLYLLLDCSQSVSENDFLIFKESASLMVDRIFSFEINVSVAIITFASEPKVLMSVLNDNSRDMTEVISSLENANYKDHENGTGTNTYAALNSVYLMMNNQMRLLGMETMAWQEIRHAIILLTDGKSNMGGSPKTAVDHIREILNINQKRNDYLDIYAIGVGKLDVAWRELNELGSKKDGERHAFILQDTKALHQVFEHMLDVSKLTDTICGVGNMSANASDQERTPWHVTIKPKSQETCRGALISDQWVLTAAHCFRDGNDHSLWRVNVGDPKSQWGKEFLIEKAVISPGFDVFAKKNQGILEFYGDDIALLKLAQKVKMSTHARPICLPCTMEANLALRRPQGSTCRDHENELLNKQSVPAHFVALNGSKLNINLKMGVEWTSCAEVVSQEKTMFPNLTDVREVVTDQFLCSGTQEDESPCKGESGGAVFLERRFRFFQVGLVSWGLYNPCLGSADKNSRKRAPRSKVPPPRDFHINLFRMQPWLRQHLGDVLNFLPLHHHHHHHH

human C2 Q447A = target: T2, human C2 Q447A (human, UniProt P06681 21-752)
T2 sequence: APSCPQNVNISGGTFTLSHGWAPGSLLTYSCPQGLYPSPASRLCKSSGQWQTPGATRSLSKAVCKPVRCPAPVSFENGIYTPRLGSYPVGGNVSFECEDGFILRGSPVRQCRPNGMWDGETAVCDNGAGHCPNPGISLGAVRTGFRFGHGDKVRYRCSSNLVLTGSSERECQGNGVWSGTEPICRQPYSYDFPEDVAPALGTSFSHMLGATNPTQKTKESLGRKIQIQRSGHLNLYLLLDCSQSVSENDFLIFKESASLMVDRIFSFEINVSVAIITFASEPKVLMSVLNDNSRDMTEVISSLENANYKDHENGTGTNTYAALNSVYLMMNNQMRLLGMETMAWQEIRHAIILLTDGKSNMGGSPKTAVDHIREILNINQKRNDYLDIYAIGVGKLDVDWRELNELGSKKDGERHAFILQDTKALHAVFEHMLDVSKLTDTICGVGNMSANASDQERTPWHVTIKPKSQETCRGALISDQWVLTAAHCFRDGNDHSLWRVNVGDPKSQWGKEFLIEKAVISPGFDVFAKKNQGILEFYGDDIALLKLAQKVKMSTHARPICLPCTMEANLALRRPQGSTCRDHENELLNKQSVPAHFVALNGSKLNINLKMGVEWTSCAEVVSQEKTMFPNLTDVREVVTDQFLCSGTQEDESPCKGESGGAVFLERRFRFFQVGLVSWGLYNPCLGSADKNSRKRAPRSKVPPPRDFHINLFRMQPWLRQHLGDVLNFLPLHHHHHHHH

human C2 V448A = target: T3, human C2 V448A (human, UniProt P06681 21-752)
T3 sequence: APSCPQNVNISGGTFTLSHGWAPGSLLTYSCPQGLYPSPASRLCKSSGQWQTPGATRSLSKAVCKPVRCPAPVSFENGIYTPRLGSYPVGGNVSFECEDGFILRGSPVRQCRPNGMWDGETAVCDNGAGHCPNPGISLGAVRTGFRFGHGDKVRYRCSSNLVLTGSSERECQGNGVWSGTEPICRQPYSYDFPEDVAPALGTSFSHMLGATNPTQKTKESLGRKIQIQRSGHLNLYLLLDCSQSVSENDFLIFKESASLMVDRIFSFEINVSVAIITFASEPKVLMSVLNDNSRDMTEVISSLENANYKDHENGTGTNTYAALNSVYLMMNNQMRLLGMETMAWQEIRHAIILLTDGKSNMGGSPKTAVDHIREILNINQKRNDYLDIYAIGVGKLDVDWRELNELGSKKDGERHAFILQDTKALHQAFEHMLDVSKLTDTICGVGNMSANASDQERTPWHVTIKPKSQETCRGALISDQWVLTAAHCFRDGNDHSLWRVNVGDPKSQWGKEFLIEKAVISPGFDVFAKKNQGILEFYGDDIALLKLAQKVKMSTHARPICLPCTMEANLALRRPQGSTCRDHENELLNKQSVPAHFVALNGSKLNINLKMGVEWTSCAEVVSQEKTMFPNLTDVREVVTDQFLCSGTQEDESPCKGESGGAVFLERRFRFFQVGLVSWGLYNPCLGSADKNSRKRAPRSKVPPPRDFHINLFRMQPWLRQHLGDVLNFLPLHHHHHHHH

human C2 E476A = target: T4, human C2 E476A (human, UniProt P06681 21-752)
T4 sequence: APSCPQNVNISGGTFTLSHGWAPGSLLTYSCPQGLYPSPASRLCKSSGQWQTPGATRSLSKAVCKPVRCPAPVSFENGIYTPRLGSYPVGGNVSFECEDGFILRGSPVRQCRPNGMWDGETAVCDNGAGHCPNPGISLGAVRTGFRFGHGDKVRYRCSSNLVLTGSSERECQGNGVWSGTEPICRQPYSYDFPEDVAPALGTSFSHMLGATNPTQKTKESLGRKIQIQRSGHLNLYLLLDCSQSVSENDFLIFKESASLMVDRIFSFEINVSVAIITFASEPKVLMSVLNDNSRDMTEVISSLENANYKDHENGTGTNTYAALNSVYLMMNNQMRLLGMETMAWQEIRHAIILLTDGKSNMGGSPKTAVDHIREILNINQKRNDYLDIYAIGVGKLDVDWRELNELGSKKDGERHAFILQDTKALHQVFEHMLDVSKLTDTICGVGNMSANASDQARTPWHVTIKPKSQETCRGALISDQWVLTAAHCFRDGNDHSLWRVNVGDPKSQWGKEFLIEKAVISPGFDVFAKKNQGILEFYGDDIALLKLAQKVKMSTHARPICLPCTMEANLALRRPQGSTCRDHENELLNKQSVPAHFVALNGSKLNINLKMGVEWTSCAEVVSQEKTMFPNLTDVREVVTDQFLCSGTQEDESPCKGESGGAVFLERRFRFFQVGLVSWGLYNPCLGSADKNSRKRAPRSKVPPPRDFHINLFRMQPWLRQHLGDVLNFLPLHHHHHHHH

B1: RF16-242 (antibody, human IgG4 S228P, lambda, V domains shown)
VH: EVQLLQSGAEVKKPGESLKISCKGSGYSFTSYWIGWVRQMPGKGLEWMGIIYPGDSDTRYSPSFQGQVTISADKSISTAYLQWSSLKASDTAMYYCARRGHYGDYFDYWGQGTLVTVSS
VL: SYELTQPPSVSVSPGQTARITCSGDALPKKYAYWYHQKSGQAPVLVIYEDRRRPSEIPERFSGSSSGTMATLTITGAQVEDEGVYFCYSRDRAGNQRVFGGGTQLTVLG
notes: pH-dependent anti-C2 antibody from a phage display library
- Kd (human C2 D419A): 0.0105 µM
- Kd (human C2 Q447A): 0.026 µM
- Kd (human C2 V448A): 0.005 µM
- Kd (human C2 E476A): 0.014 µM
